In the experiment the target is Full-length recombinant human SIRT1 (human) (UniProt Q96EB6).
Chain of UniProt Q96EB6 (Q96EB6 whole entry): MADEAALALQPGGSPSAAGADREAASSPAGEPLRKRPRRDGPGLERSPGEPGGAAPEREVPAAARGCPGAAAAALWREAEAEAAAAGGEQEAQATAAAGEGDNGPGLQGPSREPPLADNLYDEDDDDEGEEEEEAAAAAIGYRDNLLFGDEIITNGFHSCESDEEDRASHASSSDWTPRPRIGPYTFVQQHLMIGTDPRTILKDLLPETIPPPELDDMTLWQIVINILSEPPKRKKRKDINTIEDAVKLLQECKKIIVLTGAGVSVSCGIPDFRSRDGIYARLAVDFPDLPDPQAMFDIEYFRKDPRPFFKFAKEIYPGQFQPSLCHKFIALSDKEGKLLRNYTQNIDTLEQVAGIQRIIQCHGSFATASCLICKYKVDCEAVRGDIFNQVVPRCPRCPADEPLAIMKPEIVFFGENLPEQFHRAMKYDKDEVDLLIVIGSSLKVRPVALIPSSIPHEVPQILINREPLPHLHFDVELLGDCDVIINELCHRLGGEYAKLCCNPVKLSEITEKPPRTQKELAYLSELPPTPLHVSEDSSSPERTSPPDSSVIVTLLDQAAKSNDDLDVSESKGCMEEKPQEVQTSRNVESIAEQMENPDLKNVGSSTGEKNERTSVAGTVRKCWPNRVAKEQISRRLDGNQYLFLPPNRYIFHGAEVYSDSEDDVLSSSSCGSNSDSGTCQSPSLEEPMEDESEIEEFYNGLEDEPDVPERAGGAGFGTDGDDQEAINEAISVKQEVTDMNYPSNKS

Turning to H4K16Ac synthetic peptide, the Km of the peptide substrate in SIRT1-catalysed deacetylation (HPLC assay, 500 uM NAD+, 0.5 uM SIRT1, 100 mM phosphate pH 7.5, 37 °C) stood at 46.4 µM.

The record behind these values is PMC7922766.
